Measurements as given in the supplement of paper PMC9732359.
± gives the uncertainty stated by the source.

Assay: protein stability index of a GFP-peptide fusion (yeast GPS) (PSI 1-4); higher = more stable; sorted into four equal gates, so the index is relative within each strain
Method in brief: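 The protein stability index of a peptide was calculated by multiplying its read frequency in each gate by that gate's number and adding the products. The peptides were tiled 17-residue stretches of yeast proteins, fused downstream of GFP on a Cherry-expressing plasmid and carried in yeast as a pooled library. Mid-log cultures in leucine-free medium were sorted into four equal gates by GFP/Cherry ratio, and each gate's plasmids were PCR-amplified and Illumina-sequenced.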

| Sequence | protein stability index (doa10∆) | protein stability index (pdr5∆) | protein stability index (san1∆) | protein stability index (ubr1∆) |
| --- | --- | --- | --- | --- |
| QPQQQLGDMENNLEKYP [RTT102] | 3.54 ± 0.092 | 3.15 ± 0.12 | 3.62 ± 0.077 | 3.33 ± 0.1 |
| QPTPRSASNTAKSTPNT [GAL11] | 2.75 ± 0.061 | 2.93 ± 0.05 | 2.75 ± 0.058 | 2.55 ± 0.048 |
| QQKQQQQQQQHQQQQQQ [SNF5] | 2.73 ± 0.033 | 2.8 ± 0.03 | 2.81 ± 0.029 | 2.769 ± 0.026 |
| QQLRRALPDVVVKGLPD [RPO31] | 2.19 ± 0.069 | 2.31 ± 0.057 | 1.93 ± 0.078 | 2.36 ± 0.083 |
| QQPNPLQDLISVYGLDD [ROX3] | 1.95 ± 0.073 | 1.76 ± 0.061 | 2.02 ± 0.15 | 1.97 ± 0.084 |
| QQQQAAALANANNNINS [SWI1] | 2.51 ± 0.058 | 2.3 ± 0.053 | 2.46 ± 0.047 | 2.65 ± 0.06 |
| QQQQQQQQQQQQQGQIP [SNF5] | 2.729 ± 0.023 | 2.79 ± 0.023 | 2.75 ± 0.022 | 2.826 ± 0.02 |
| QQQTNALNGIDINTVNT [GRR1] | 3.31 ± 0.053 | 3.25 ± 0.055 | 3.24 ± 0.044 | 3.19 ± 0.05 |
| QQRFQALQQQQQQQQNQ [SWI1] | 2.05 ± 0.05 | 2.07 ± 0.046 | 2.25 ± 0.052 | 2.04 ± 0.059 |
| QQRIREIGLLPEDALVN [SMC3] |  |  | 3.27 ± 0.2 | 3.25 ± 0.13 |
| QQTGLVDAITRCYQPFE [SNU114] | 2.53 ± 0.069 | 2.76 ± 0.056 | 3.04 ± 0.041 | 2.98 ± 0.05 |
| QRDLGLYVVGLFDTYHA [RRP6] | 2.38 ± 0.046 | 2.53 ± 0.043 | 1.91 ± 0.062 | 2.57 ± 0.033 |
| QRDLYKRKEELVSTLTT [SMC2] | 2.14 ± 0.073 | 1.91 ± 0.063 | 2.64 ± 0.071 | 1.82 ± 0.053 |
| QRFVGHKSDVMSVDIDK [ASC1] | 3.04 ± 0.095 | 3.06 ± 0.061 | 2.69 ± 0.082 | 2.96 ± 0.071 |
| QRIAKNDPEYMDTSDDA [DLS1] | 3.01 ± 0.16 | 3.15 ± 0.12 | 2.82 ± 0.15 | 3.01 ± 0.079 |
| QRILEVLGTPDQKIWPY [SSN3] | 2.2 ± 0.076 | 1.45 ± 0.057 | 1.76 ± 0.093 | 1.6 ± 0.068 |
| QRTATLCLEKLMCLSSK [YCS4] | 1.6 ± 0.049 | 2.29 ± 0.075 | 2.49 ± 0.11 | 1.78 ± 0.057 |
| QRTLSKSFYSTATGAAS [CYT1] | 1.98 ± 0.06 | 2.39 ± 0.054 | 2.43 ± 0.068 | 2.39 ± 0.048 |
| QRVFKPVDITMMENYQN [PRP8] | 2.43 ± 0.063 | 2.27 ± 0.074 | 2.71 ± 0.073 | 2.41 ± 0.048 |
| QRYVKSVKSVKFPTRKI [RPC34] |  |  | 3.26 ± 0.11 |  |
| QSEHLEAVVDQDVQRTC [FAS1] | 3.47 ± 0.25 | 3.36 ± 0.14 | 3.49 ± 0.094 | 3.38 ± 0.095 |
| QSQPQEKFSEKMLKIWT [ECM29] | 3.57 ± 0.26 | 3.08 ± 0.15 | 2.9 ± 0.21 | 3.03 ± 0.2 |
| QSSRVVSLSQLLFIVGQ [YCS4] | 1.75 ± 0.063 | 1.33 ± 0.048 | 1.83 ± 0.11 | 1.4 ± 0.054 |
| QTQREKAPLQPNSERET [IRR1] | 3.1 ± 0.061 | 3.2 ± 0.059 | 3.06 ± 0.039 | 3.07 ± 0.054 |
| QTRKEYNTSILEFRWLT [SIN4] | 1.74 ± 0.073 | 1.74 ± 0.059 | 1.83 ± 0.093 | 2.42 ± 0.098 |
| QTSRGLFGNNNTNNINN [YGL172W/NUP49] | 3.1 ± 0.18 | 3.04 ± 0.13 | 3.13 ± 0.16 | 3.14 ± 0.16 |
| QTYGETTAVDALQKGLK [RPC19] | 2.03 ± 0.13 | 1.1 ± 0.12 | 1.16 ± 0.29 | 1.14 ± 0.082 |
